Measured values from paper PMC3424545 (Nucleic Acids Research, 2012).

Biological target: T1, His6-tagged Mcm10 (human, UniProt Q7L590 1-875)
T1 sequence (looked up): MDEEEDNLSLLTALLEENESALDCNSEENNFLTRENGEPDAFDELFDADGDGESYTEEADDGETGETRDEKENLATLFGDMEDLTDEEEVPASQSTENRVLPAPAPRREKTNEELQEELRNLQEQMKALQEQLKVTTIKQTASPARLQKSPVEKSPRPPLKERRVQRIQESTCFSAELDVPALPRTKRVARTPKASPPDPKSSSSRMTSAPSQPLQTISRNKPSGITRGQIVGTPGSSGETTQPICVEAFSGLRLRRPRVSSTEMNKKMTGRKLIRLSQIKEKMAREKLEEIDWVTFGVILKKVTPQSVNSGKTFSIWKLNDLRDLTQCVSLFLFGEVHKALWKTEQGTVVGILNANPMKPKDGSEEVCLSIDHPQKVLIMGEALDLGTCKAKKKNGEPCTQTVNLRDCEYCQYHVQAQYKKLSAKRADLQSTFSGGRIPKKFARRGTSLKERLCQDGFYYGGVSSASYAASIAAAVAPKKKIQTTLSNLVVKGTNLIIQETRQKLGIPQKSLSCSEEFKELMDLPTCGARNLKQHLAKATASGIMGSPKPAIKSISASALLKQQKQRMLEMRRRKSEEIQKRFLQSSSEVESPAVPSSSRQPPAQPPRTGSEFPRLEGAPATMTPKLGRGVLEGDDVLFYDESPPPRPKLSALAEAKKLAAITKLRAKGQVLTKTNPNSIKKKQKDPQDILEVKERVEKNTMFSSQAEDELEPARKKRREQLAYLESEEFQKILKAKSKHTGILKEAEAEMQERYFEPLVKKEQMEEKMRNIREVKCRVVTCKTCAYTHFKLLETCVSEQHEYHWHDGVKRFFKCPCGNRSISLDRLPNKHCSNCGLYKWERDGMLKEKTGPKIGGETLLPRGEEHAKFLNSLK
Experiment: pull-down

B1: GST-tagged C-terminus VprBP (864-1507) (domain or fragment)
chain: not shown
- binding result: binds
